Results taken from patent publication US20200040057A1 (IMMATICS BIOTECHNOLOGIES, published 2020).

The binders below were run against HLA-B*07 (human) (assay: UV peptide exchange ELISA; +++ = yield >50).

**Q.** How did the peptide exchange yield turn out when KIEQIRAVL was run?
**A.** 50 to 75%

**Q.** IPDTIASVL was tested. Which peptide exchange yield did it give?
**A.** 50 to 75%

**Q.** Which peptide exchange yield does the source give for LPWEQNEQV here?
**A.** 50 to 75%

**Q.** With SPGDKRLAAYL as the binder, how does the peptide exchange yield read?
**A.** 50 to 75%

**Q.** With VPHTGRYTCL as the binder, how does the peptide exchange yield read?
**A.** 50 to 75%

**Q.** RPAPGPAPFV was tested. Which peptide exchange yield did it give?
**A.** 50 to 75%

**Q.** With LPQRPNARL as the binder, how does the peptide exchange yield read?
**A.** 50 to 75%

**Q.** With SPIIHSIL as the binder, how does the peptide exchange yield read?
**A.** 50 to 75%

**Q.** For APGGSSRSSL, which peptide exchange yield is on record?
**A.** 50 to 75%

**Q.** With RPGTGQGGL as the binder, how does the peptide exchange yield read?
**A.** 50 to 75%

**Q.** Which peptide exchange yield does the source give for RPTAASQSRAL here?
**A.** 50 to 75%

**Q.** For FPNAGPRHLL, which peptide exchange yield is on record?
**A.** 50 to 75%

**Q.** TAYPSLRLL was tested. Which peptide exchange yield did it give?
**A.** 50 to 75%

**Q.** How did the peptide exchange yield turn out when MAYDRFIAI was run?
**A.** 50 to 75%

**Q.** With HPRAPGEQQRL as the binder, how does the peptide exchange yield read?
**A.** 50 to 75%

**Q.** How did the peptide exchange yield turn out when TPELKSSIL was run?
**A.** 50 to 75%

**Q.** VLPRAGGAFLM was tested. Which peptide exchange yield did it give?
**A.** 50 to 75%

**Q.** For RVMLPKAAL, which peptide exchange yield is on record?
**A.** 50 to 75%

**Q.** For IPETASVVAI, which peptide exchange yield is on record?
**A.** 50 to 75%

**Q.** With LPNTGRIGQL as the binder, how does the peptide exchange yield read?
**A.** 50 to 75%

**Q.** How did the peptide exchange yield turn out when SPVGVGQRL was run?
**A.** 50 to 75%

**Q.** KPYDGIPAS was tested. Which peptide exchange yield did it give?
**A.** 50 to 75%

**Q.** For SPRSGVLL, which peptide exchange yield is on record?
**A.** 50 to 75%

**Q.** How did the peptide exchange yield turn out when QPENSLEGISL was run?
**A.** 50 to 75%

**Q.** With AVHEIGHSL as the binder, how does the peptide exchange yield read?
**A.** 50 to 75%

**Q.** For SPSTSRTPL, which peptide exchange yield is on record?
**A.** 50 to 75%

**Q.** Which peptide exchange yield does the source give for APRPGNWIL here?
**A.** 50 to 75%

**Q.** FPRKPYEGRV was tested. Which peptide exchange yield did it give?
**A.** 50 to 75%

**Q.** MPVPGILL was tested. Which peptide exchange yield did it give?
**A.** 50 to 75%

**Q.** Which peptide exchange yield does the source give for SPRGTTSTL here?
**A.** 50 to 75%
